B1: Mothers against decapentaplegic homolog 4 (Homo sapiens), Q13485 (parent)
chain: MDNMSITNTPTSNDACLSIVHSLMCHRQGGESETFAKRAIESLVKKLKEKKDELDSLITAITTNGAHPSKCVTIQRTLDGRLQVAGRKGFPHVIYARLWRWPDLHKNELKHVKYCQYAFDLKCDSVCVNPYHYERVVSPGIDLSGLTLQSNAPSSMMVKDEYVHDFEGQPSLSTEGHSIQTIQHPPSNRASTETYSTPALLAPSESNATSTANFPNIPVASTSQPASILGGSHSEGLLQIASGPQPGQQQNGFTGQPATYHHNSTTTWTGSRTAPYTPNLPHHQNGHLQHHPPMPPHPGHYWPVHNELAFQPPISNHPAPEYWCSIAYFEMDVQVGETFKVPSSCPIVTVDGYVDPSGGDRFCLGQLSNVHRTEAIERARLHIGKGVQLECKGEGDVWVRCLSDHAVFVQSYYLDREAGRAPGDAVHKIYPSAYIKVFDLRQCHRQMQQQAATAQAAAAAQAAAVAGNIPGPGSVGGIAPAISLSAAAGIGVDDLRRLCILRMSFVKGWGPDYPRQSIKETPCWIEIHLHRALQLLDEVLHTMPIADPQPLD
partner: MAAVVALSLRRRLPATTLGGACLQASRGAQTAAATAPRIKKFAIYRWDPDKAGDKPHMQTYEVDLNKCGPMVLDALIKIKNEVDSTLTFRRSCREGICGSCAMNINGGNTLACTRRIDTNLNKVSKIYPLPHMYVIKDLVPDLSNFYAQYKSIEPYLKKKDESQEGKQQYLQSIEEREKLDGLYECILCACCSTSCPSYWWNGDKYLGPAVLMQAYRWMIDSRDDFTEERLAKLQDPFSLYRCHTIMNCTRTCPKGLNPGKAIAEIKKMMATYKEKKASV
B2: Mothers against decapentaplegic homolog 4 (Homo sapiens), Q13485 (parent)
chain: B1 chain
partner: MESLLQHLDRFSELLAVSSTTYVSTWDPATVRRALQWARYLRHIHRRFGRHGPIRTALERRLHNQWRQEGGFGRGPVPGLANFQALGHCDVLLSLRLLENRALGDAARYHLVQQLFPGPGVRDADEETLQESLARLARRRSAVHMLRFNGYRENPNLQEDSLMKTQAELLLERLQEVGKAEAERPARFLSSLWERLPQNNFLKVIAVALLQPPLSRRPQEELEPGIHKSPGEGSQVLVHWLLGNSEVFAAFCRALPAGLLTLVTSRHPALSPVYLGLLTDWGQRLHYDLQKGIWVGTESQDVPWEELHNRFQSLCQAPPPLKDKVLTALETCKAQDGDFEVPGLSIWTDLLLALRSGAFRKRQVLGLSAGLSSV
B3: Mothers against decapentaplegic homolog 4 (Homo sapiens), Q13485 (parent)
chain: B1 chain
partner: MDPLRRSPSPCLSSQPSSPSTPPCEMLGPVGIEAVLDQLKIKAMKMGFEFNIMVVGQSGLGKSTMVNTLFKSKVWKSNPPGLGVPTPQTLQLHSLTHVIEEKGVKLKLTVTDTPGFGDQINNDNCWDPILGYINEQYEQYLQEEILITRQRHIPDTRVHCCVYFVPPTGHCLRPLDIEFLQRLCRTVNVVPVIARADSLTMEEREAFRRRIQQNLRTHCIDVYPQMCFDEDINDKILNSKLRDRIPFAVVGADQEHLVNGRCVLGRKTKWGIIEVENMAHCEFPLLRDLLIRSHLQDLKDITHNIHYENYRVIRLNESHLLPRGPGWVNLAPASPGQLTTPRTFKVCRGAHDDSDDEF
B4: Mothers against decapentaplegic homolog 4 (Homo sapiens), Q13485 (parent)
chain: B1 chain
partner: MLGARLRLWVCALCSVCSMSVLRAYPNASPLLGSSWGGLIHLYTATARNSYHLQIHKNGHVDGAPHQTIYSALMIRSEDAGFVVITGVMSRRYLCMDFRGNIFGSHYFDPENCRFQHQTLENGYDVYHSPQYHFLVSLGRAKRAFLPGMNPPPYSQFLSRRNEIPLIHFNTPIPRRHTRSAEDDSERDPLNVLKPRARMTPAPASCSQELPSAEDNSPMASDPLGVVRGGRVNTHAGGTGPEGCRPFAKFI
B5: Mothers against decapentaplegic homolog 4 (Homo sapiens), Q13485 (parent)
chain: B1 chain
partner: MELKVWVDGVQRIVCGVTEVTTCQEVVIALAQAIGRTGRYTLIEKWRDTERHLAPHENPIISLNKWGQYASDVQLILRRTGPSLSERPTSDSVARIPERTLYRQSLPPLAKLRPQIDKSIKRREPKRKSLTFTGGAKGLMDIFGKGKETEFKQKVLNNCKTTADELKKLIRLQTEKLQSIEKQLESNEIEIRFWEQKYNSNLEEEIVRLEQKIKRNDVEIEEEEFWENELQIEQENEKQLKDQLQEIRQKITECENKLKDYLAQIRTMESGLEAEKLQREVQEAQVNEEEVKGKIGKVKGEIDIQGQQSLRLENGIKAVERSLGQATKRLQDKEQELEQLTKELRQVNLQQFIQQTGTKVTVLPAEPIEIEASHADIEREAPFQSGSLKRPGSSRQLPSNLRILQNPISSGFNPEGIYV

Variants of: B1
Settings: with sdhb_human SDHB

Variant | effect of a mutation on the interaction
R361C | with no effect

Variants of: B2
Settings: with fancf_human FANCF

Variant | effect of a mutation on the interaction
G386D | with no effect

Variants of: B3
Settings: with sep12_human SEPTIN12, Q8IYM1

Variant | effect of a mutation on the interaction
R361C | with no effect

Variants of: B4
Settings: with fgf23_human FGF23, Q9GZV9

Variant | effect of a mutation on the interaction
G386D | with no effect

Variants of: B4
Settings: with fgf23_human FGF23, Q9GZV9
Remark: another data set of the same source

Variant | effect of a mutation on the interaction
G386D | increasing interaction strength

Variants of: B5
Settings: with rasf8_human RASSF8, Q8NHQ8

Variant | effect of a mutation on the interaction
R361H | with no effect

Variants of: B5
Settings: with rasf8_human RASSF8, Q8NHQ8
Remark: another data set of the same source

Variant | effect of a mutation on the interaction
R361C | with no effect

Variants of: B5
Settings: with rasf8_human RASSF8, Q8NHQ8
Remark: another data set of the same source

Variant | effect of a mutation on the interaction
G386D | with no effect

Variants of: B5
Settings: with rasf8_human RASSF8, Q8NHQ8
Remark: another data set of the same source

Variant | effect of a mutation on the interaction
G386D | increasing interaction strength
